“And” between values parts separate entries of the source, which are not always exact repeats. Equal entries are not always repeated.
How the values were obtained:
[1] = target: SARS-CoV-2 spike (S) glycoprotein ectodomain, prefusion-stabilised trimer (SARS-CoV-2) (UniProt P0DTC2); test: SPR
[2] = target: SARS-CoV-2 spike (S) glycoprotein ectodomain, prefusion-stabilised trimer (SARS-CoV-2) (UniProt P0DTC2); test: negative-stain electron microscopy

| Substance | Kd [1] | stoichiometry N [2] |
| --- | --- | --- |
| DC-SIGN extracellular domain (Dendritic Cell-Specific Intercellular adhesion molecule-3-Grabbing Non-integrin) (from UniProt Q9NNX6 66-404) (domain or fragment) | 11.9 µM and 4.33 µM | 1 and > 2 |
| L-SIGN extracellular domain (liver/lymph node-specific intracellular adhesion molecules-3 grabbing non-integrin) (from UniProt Q9H2X3 78-399) (domain or fragment) | 1.8 µM and 1.66 µM |  |
| MGL (Macrophage galactose lectin) extracellular domain (domain or fragment) | 7 µM |  |

Reference: PMC8136665
